Results published in paper PMC8153946, “Substrate Selectivity of Coumarin Derivatives by Human CYP1 Enzymes: In Vitro Enzyme Kinetics and In Silico Modeling” (ACS Omega, 2021).

Columns and labels:
Test in all cases: Michaelis–Menten kinetics of oxidation to fluorescent 7-hydroxy metabolite by recombinant CYP1B1
Type in all cases: biochemical, human
Conditions in all cases: other: recombinant CYP1B1, 100 mM Tris-HCl pH 7.4, 37 °C, 95% confidence interval in brackets
[1] = substrate: CCOc1ccc2nc3ccc(=O)cc-3oc2c1
Procedure: (§1) Baculovirus-insect cell-expressed human CYP1A1, CYP1A2, CYP1B1, CYP2A6, CYP2B6, CYP2C8, CYP2C9, CYP2C19, CYP2D6, CYP2E1, CYP3A4, CYP3A5, and CYP3A7 were purchased from BD Biosciences Discovery Labware (Woburn, MA, USA) and used according to the manufacturer’s instructions.
(§2) The kinetic assays were carried out in 100 μL volume containing 100 mM Tris-HCl buffer pH 7.4, 0–40 μM coumarin derivative or 0–10 μM 7-ethoxyresorufin, 1–25 nM recombinant CYP or 0–0.1 g/L microsomal protein, and 20% NADPH regenerating system. Incubations took place at 37 °C in 96-multiwell plates; the fluorescence was measured with a Victor[2] plate reader (PerkinElmer Life Sciences, Turku, Finland). The detailed conditions are described in the figures and tables. The reaction was started by adding NADPH, and fluorescence was measured at 2 min intervals for 40 min using excitation at 405 nm and emission at 460 nm for oxidation of coumarin derivatives[18] and excitation at 570 nm and emission at 615 nm for ethoxyresorufin or pentoxyresorufin 7-O-dealkylations. Incubations without the substrate, enzyme, or NADPH were used as blank reactions. Resorufin was used as a standard, and 3-(4-fluorophenyl)-7-hydroxycoumarin was used as the surrogate standards to calculate the amount of product formed. The linear phase of the reactions was used for calculations.
(§3) Enzyme kinetic parameters were analyzed using the nonlinear Michaelis–Menten equation v = Vmax × S/(Km + S), in which v is the rate for 7-hydroxylation of a coumarin derivative, S is its concentration, and Vmax value is the limiting rate of the reaction of 7-hydroxylation, which reached a half-maximal rate at a concentration of Km for the substrate.

[2] = substrate: CCOc1ccc2ccc(=O)oc2c1
Procedure: as §1, §2, §3

[3] = substrate: CCCCCOc1ccc2nc3ccc(=O)cc-3oc2c1
Procedure: as §1, §2, §3

[4] = substrate: CC(=O)Oc1ccc(-c2cc3cc(Cl)ccc3oc2=O)cc1
Procedure: as §1, §2, §3

[5] = substrate: COc1cccc(-c2cc3cc(OC)ccc3oc2=O)c1
Procedure: as §1, §2, §3

[6] = substrate: O=c1oc2ccc(O)cc2cc1-c1cccc(O)c1
Procedure: as §1, §2, §3

[7] = substrate: CC(=O)Oc1cccc(-c2cc3cc(Cl)ccc3oc2=O)c1
Procedure: as §1, §2, §3

B1: human CYP1B1 (Homo sapiens) (protein)
chain: MGTSLSPNDPWPLNPLSIQQTTLLLLLSVLATVHVGQRLLRQRRRQLRSAPPGPFAWPLIGNAAAVGQAAHLSFARLARRYGDVFQIRLGSCPIVVLNGERAIHQALVQQGSAFADRPAFASFRVVSGGRSMAFGHYSEHWKVQRRAAHSMMRNFFTRQPRSRQVLEGHVLSEARELVALLVRGSADGAFLDPRPLTVVAVANVMSAVCFGCRYSHDDPEFRELLSHNEEFGRTVGAGSLVDVMPWLQYFPNPVRTVFREFEQLNRNFSNFILDKFLRHCESLRPGAAPRDMMDAFILSAEKKAAGDSHGGGARLDLENVPATITDIFGASQDTLSTALQWLLLLFTRYPDVQTRVQAELDQVVGRDRLPCMGDQPNLPYVLAFLYEAMRFSSFVPVTIPHATTANTSVLGYHIPKDTVVFVNQWSVNHDPLKWPNPENFDPARFLDKDGLINKDLTSRVMIFSVGKRRCIGEELSKMQLFLFISILAHQCDFRANPNEPAKMNFSYGLTIKPKSFKVNVTLRESMELLDSAVQNLQAKETCQ
notes: purchased BD Biosciences Discovery Labware (Woburn, MA, USA); host or cells: baculovirus-insect cells
Km [1]: 0.096 (0.072–0.119) μM
kcat [1]: 3.3 (3.0–3.6) mol/(min·mol CYP)
Km [2]: 120 (0–282) μM
kcat [2]: 1.75 (0–3.54) mol/(min·mol CYP)
Km [3]: 2.59 (1.65–3.53) μM
kcat [3]: 0.37 (0.28–0.46) mol/(min·mol CYP)
Km [4]: 0.095 (0.04–0.15) μM
kcat [4]: 5.1 (4.7–5.5) mol/(min·mol CYP)
Km [5]: 0.43 (0.24–0.61) μM
kcat [5]: 9.3 (8.2–10.4) mol/(min·mol CYP)
Km [6]: 0.53 (0–1.1) μM
kcat [6]: 0.29 (0.25–0.34) mol/(min·mol CYP)
Km [7]: 1.1 (0.5–1.7) μM
kcat [7]: 1.1 (0.96–1.2) mol/(min·mol CYP)
